Measured values: publication PMC2836930 (Biomacromolecules, 2008)
Where “and” joins values, the source holds several entries; their conditions need not be identical. Identical values can stand only once. Like-named read-outs stand apart in the source and are kept apart here.

Key:
AUC [1] = biological target: the molecule itself; test: AUC
AUC [2] = biological target: the molecule itself; test: AUC; remark: listed apart in the source

## Ac-IDFISTYITKIDKKIQSIEDIIHQIENKISEIKQLIK-NH2 [γ_(52–88)KI]
AUC [1]
  stoichiometry N: ~2 and ~4
AUC [2]
  Kd: 4.95 µM
  stoichiometry N: 2 and 4
